The values that follow are results of earlier work, collected in article PMC7830601.

The target in series [1] is ASC PYD (Homo sapiens) (UniProt Q9ULZ3).
Series [2] shares this target. This is another data set of the same source.
The target in series [3] is AIM2 HIN (Homo sapiens) (UniProt O14862). Description: ITC. (In general: ITC needs no label: the signal is the heat of the interaction.)
For series [4], the target named is ASC CARD (Homo sapiens) (UniProt Q9ULZ3). Description: NMR.

Like-named read-outs stand apart in the source and are kept apart here.

Take ASC2 (from UniProt Q8WXC3): the Kd – broadly, the constant that tells how readily two partners part at equilibrium – in series [1] was 3.81 µM; in series [2], 4.08 µM.

For the substance AIM2 PYD (from UniProt O14862), the Kd in series [3] was 23.5 µM. With ASC CARD (from UniProt Q9ULZ3), the Kd in series [4] was 50 µM.
